Assay results taken from US20170114100A1 (ALBERT EINSTEIN COLLEGE OF MEDICINE, published 2017).

Molecular target: the molecule itself
Experiment: SEC dimerization assay (FIG. 4A)

B1: BAX 4MA (C62S, C126S, V121C, I136C), internally cross-linked mutant (other)
chain: MDGSGEQPRGGGPTSSEQIMKTGALLLQGFIQDRAGRMGGEAPELALDPVPQDASTKKLSESLKRIGDELDSNMELQRMIAAVDTDSPREVFFRVAADMFSDGNFNWGRVVALFYFASKLCLKALSTKVPELIRTCMGWTLDFLRERLLGWIQDQGGWDGLLSYFGTPTWQTVTIFVAGVLTASLTIWKKMG
modifications: internal cross-link between the introduced cysteines (V121C, I136C), reduced by DTT
notes: also called BAX 4MA dimer; 4MA monomer
- binding result: binds
